Experimental data taken from patent US8034783B2, “Prodomain modulators of ADAM 10” (Biozyme, Inc., priority 2006, dated 2011).

What was measured:
Format in all cases: biochemical
TACE (human) Cat/Dis = biological target: T1, TACE (human) Cat/Dis (Homo sapiens, UniProt P78536); assay: Inhibition assay with TACE catalytic/disintegrin construct, fluorescent substrate; details: room temperature; read-out: inhibition constant, TACE (human) Cat/Dis
T1 construct: containing the catalytic/disintegrin domains; purchased R & D Systems (Minneapolis, Minn., USA)
Protocol: (§1) Inhibition assays with TACE and ADAM 10. Activity of TACE catalytic/disintegrin, TACE catalytic, or ADAM10 catalytic/disintegrin constructs was monitored at 3 minute intervals using the fluorescent substrate, Dabcyl-LAQAHomoPheRSC(Fluorescein)-NH2 (SEQ ID NO 17) with excitation 485 nm and emission 530 nm. The substrate was diluted from a 10 mM stock in DMSO to 10 μM in assay buffer containing 20 mM Tris, pH 8.0, and 0.0006% Brij-35. Reactions were run in a 96-well black-coated plate with either ADAM10 prodomain (10 nM-1.0 μM) alone or with enzyme. Concentrations of enzyme ranged from 0.5-2.0 nM for TACE and 5-15 nM for ADAM10. For assays with TACE and ADAM8 prodomain, the range of concentrations varied from 1-4.7 μM.
(§2) Calculation of inhibition constants. The amount of activity was calculated by subtracting the ADAM 10 prodomain control from the ADAM 10 prodomain with enzyme. All inhibition assays were performed at room temperature and the data fit to the following equation using Sigma Plot software:
(§3) [formula] where If is fractional inhibition, I is the inhibitor concentration and Ki is the inhibition constant.

TACE (human) Cat = biological target: T2, TACE (human) Cat (Homo sapiens, UniProt P78536); assay: Inhibition assay with TACE catalytic domain, fluorescent substrate; details: room temperature; read-out: inhibition constant, TACE (human) Cat
T2 construct: TACE catalytic domain, Marcos Milla, University of Pennsylvania; donated by Marcos Milla, University of Pennsylvania
Protocol: as §1, §2, §3

[1] = biological target: T3, ADAM 8 (mouse) catalytic domain (Mus musculus, UniProt Q05910); assay: Inhibition assay with ADAM 8 catalytic domain; details: fluorescamine assay; read-out: inhibition constant, ADAM 8 (mouse)
T3 construct: The ADAM 8 catalytic domain was expressed and purified from E. coli as described (22); made in house; host or cells: E. coli
T3 sequence (Q05910 196-395 limits assumed): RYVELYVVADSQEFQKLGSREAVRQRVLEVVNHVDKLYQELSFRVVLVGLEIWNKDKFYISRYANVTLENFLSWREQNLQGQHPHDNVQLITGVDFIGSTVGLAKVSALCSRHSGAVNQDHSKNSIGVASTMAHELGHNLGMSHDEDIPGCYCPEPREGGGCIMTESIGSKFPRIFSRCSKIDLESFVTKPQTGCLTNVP
Protocol: Inhibition assays with ADAM 8. The ADAM 8 catalytic domain was expressed and purified from E. coli as described (22). A substrate based on the L-selectin cleavage site, Dnp-INorIeuQKLDKSFSMIKE-NH2 (SEQ ID NO 20), was used to monitor enzyme activity with a fluorescamine assay. From a concentrated 50 mM solution in DMSO, the substrate was diluted 1:500 in 25 mM HEPES, pH 8.0, 0.0006% Brij-35. To 100 μl of diluted substrate was added either 5 μl of buffer (Tris, pH 8.0, 150 mM KCl) or 5 μl of ADAM10 prodomain (1-10 μM). Zero time points were taken by diluting 12.5 μl of the reaction mixture into 100 μl of fluorescamine buffer (50 mM HEPES, pH 8.0, 0.2 M NaCl, 0.01 M CaCl2, 0.01% Brij-35) in a 96-well black-coated plate. Before measuring fluorescence, 3 μl of a 1% solution of fluorescamine in DMSO was added to each well. The plate was allowed to incubate for 10 min in the dark before measuring fluorescence (excitation wavelength at 390 nm, emission wavelength at 485 nm). For assays with TACE and ADAM8 prodomains, a fluorescent substrate was used to monitor activity at concentrations of prodomains ranging from 1-4.7 μM.
Calculation of inhibition constants. The amount of activity was calculated by subtracting the ADAM 10 prodomain control from the ADAM 10 prodomain with enzyme. […]

MMP 1, 2, 3, 9, 13, 14 = assay: Inhibition assays with MMPs
Protocol: Inhibition assays with MMPs. The fluorescent substrate Dabcyl-GPLGMRGC (Fluorescein)-NH2 (SEQ ID NO 18) (10 μM) in assay buffer containing 50 mM Tris, pH 7.5, 150 mM NaCl, 2 mM CaCl2, 5 μM ZnSO4, and 0.01% Brij-35 was used to monitor enzyme activities. MMPs 1, 2, 3, 9, 13, and 14 (0.1-20 nM) were incubated with substrate in the absence or presence of prodomain (3-30 μM). Fluorescence intensities were measured every 3-5 minutes at an emission wavelength of 530 nm (excitation 485 nm).
as §2, §3

[2] = biological target: T4, mouse ADAM 10 catalytic domain (Mus musculus, UniProt O35598); assay: Inhibition of mouse ADAM 10 catalytic domain (unpublished observation)
T4 construct: mouse ADAM 10 catalytic domain (unpublished observation)
T4 sequence (O35598 221-457 limits assumed): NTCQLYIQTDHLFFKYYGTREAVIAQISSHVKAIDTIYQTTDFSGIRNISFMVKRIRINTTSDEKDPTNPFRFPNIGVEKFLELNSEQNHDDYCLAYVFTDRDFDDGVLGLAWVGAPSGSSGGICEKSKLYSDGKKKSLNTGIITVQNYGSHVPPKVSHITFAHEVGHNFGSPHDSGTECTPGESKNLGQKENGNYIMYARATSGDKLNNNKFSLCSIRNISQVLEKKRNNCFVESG
Protocol: Mechanism of ADAM 10 prodomain inhibition. For metalloproteinases that exist as zymogens, the presence of a cysteine in their prodomains is often necessary for inhibition of catalytic activity. […] For some of the ADAM family members, the cysteine is required for efficient inhibition of the enzyme. Therefore, a test was conducted to determine whether the cysteine in the putative cysteine switch of ADAM10 prodomain affected the potency of inhibition by preparing a C-terminal His tag construct with the only cysteine mutated to serine. […] The wild type prodomains (23-213), containing either the N- or C-terminal His tags, were both efficient inhibitors of ADAM10 (Table II), with inhibition constants of 75 and 48 nM respectively.

T1 sequence (P78536 215-671 limits assumed): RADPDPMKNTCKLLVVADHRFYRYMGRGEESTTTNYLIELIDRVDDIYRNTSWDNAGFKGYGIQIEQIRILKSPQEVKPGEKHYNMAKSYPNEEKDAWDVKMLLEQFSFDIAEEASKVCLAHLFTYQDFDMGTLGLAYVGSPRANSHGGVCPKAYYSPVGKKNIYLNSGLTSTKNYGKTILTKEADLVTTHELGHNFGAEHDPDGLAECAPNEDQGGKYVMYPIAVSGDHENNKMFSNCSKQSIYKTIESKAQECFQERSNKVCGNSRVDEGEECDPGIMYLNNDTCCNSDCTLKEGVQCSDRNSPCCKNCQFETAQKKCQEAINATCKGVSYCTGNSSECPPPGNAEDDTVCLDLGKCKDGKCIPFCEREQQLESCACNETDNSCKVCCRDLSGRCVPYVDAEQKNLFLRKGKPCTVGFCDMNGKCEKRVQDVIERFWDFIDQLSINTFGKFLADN
T2 sequence (P78536 223-474 limits assumed): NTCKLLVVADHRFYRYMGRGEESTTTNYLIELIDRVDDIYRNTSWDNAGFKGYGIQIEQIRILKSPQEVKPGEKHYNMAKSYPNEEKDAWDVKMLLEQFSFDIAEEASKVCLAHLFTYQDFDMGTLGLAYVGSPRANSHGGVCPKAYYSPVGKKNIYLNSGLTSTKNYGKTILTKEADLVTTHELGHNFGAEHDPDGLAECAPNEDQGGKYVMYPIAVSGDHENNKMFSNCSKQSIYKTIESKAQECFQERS

B1: C173S ProADAM 10 23-213 (C-terminal His tag): mouse ADAM 10 prodomain 23-213 with cysteine 173 mutated to serine, C-terminal His tag (protein, UniProt O35598 23-213, looked up, variant C173S)
chain: NPLNKYIRHYEGLSYNVDSLHQKHQRAKRAVSHEDQFLLLDFHAHGRQFNLRMKRDTSLFSDEFKVETSNKVLDYDTSHIYTGHIYGEEGSFSHGSVIDGRFEGFIKTRGGTFYIEPAERYIKDRILPFHSVIYHEDDINYPHKYGPQGGSADHSVFERMRKYQMTGVEEGARAHPEKHAASSGPELLRKK
modifications: pro-form C-terminal His tag
notes: mouse ADAM 10 prodomain 23-213 with cysteine 173 mutated to serine, C-terminal His tag
B1 was tested, and the Ki (TACE (human) Cat/Dis) was > 3 µM, the Ki (TACE (human) Cat) was > 3 µM and the Ki [1] was > 10 µM. For the same molecule, the “inhibition of matrix metalloproteinases 1, 2, 3, 9, 13 and 14” value (MMP 1, 2, 3, 9, 13, 14; 3 μM prodomain) was “not inhibited”, the Ki (MMP 1, 2, 3, 9, 13, 14; read-out: inhibition constant, MMP 1, 2, 3, 9, 13, 14) was > 2 µM and the Ki [2] was 0.017 ± 0.01 µM.
